Article PMC3789969, “The Allosteric Role of the AAA^+ Domain of ChlD Protein from the Magnesium Chelatase of Synechocystis Species PCC 6803” (The Journal of Biological Chemistry, 2013)

Tests used:
Format in all cases: biochemical, Synechocystis sp. PCC 6803
[1] = substrate: CC1=C(CCC(=O)O)c2cc3nc(cc4[nH]c(cc4C)cc4[nH]c(cc1n2)cc4C)C(C)=C3CCC(=O)O; experiment: continuous fluorometric MgDIX formation assay, Michaelis-Menten fit; details: 5 mM ATP, Mg2+, pH 7.7, 34 °C, I 0.1
[2] = substrate: Nc1ncnc2c1ncn2[C@@H]1O[C@H](COP(=O)(O)OP(=O)(O)OP(=O)(O)O)[C@@H](O)[C@H]1O; experiment: continuous fluorometric MgDIX formation assay, Hill fit; details: 10 mM free Mg2+, 8 μM DIX, pH 7.7, 34 °C
[3] = substrate: Nc1ncnc2c1ncn2[C@@H]1O[C@H](COP(=O)(O)OP(=O)(O)OP(=O)(O)O)[C@@H](O)[C@H]1O; experiment: continuous fluorometric MgDIX formation assay, Michaelis-Menten fit; details: 10 mM free Mg2+, 8 μM DIX, pH 7.7, 34 °C, I 0.1, non-cooperative

B1: magnesium chelatase (ChlI, His6-ChlD, His6-ChlH); porphyrin site (Synechocystis sp. PCC 6803 substr. Kazusa) (protein)
chain: MFTNVKSTIRRVDPEALNGRQLLKVVYVVLESQYQSALSAAVRNINRTNSSLAIQLTGYLIEELRDPENYANFKHDVSEANLFIASLIFIEDLADKVVEAVTPYRDNLDAAIVFPSMPQVMRLNKMGSFSMAQLGQSKSAIAQFMKKRKENSSGAGFQDAMLKLLRTLPTVLKYLPVEKAQDARNFMLSFQYWLGGSQENLENFLLMLTDKYVYPDLGLDKLVNYQEPVVYPDMGIWHPLSMQMFENVKDYLEWYNQRPDISEDLKDPLAPCIGLIMQRTHLVTGDDAHYVGMVQELEAMGARVICVFSGGLDFSKPVNEYFWDKSVNGVEPLPIVDAVVSLTGFALVGGPARQDHPRAIESLKKLNRPYMCALPLVFQTTEEWEASDLGLHPIQVALQIAIPELDGAIEPIILSGRDGSTGRAIALQDRLEAIAQRAMKWANLRKKPKLDKKVAITVFSFPPDKGNVGTAAYLDVFGSIYEVMKGLQGNGYDVQDLPGSAKELMEAVIHDAQAQYNSPELNIAHRMSVEQYERLTPYSVRLEENWGKPPGHLNSDGQNLLIYGKEFGNVFIGVQPTFGYEGDPMRLLFSRSASPHHGFAAYYTYLNHIWKADAVLHFGTHGSLEFMPGKQMGMSGECYPDNLIGTIPNLYYYAANNPSEATIAKRRGYASTISYLTPPAENAGLYKGLQELNELIGSYQTLKDSGRGIQIVNTIMDQARICNLDQDVNLPDINAEEMDQGQRDTIVGSVYRKLMEIESRLLPCGLHVIGQPPSAEEAIATLVNIASLDREDEGIWALPTLIAESIGRNMEEIYRNSDKGILADVELLQDITLATRAAVAALVQEQINADGRVSFVSKLNFFKIGKKAPWVKSLCDSGYPNVNEEKLKPLFEYLEFCLEQVCADNEFGGLLQALEGEYVLPGPGGDPIRNPNVLPTGKNIHALDPQSIPTLAAVQSAKVVVDRLLERQRAENGGNYPETIASVLWGTDNIKTYGESLAQIMWMVGAKPVPDALGRVNKIELVPLEELGRPRIDVVVNCSGVFRDLFINQMNLLDQAVKLAAEADEPLEMNFVRKHALEQAEEMGIGVREAATRIFSNASGSYSSNVNLAVENSSWEDESELQEMYLKRKSFAFNSDNPGMMDQNRDMFERALKTADATFQNLDSSEISLTDVSHYFDSDPTKLISTLRDDGKAPAAYIADTTTANAQVRTLSETVRLDARTKLLNPKWYEGMLSHGYEGVRELSKRLVNTMGWSATAGAVDNWVYEDANSTFIKDEEMCKRLMDLNPNSFRRMVSTLLEVNGRGYWETSDENLERLQELYQEVEDRIEGVE
notes: recombinant from E. coli; His6 tags on ChlD and ChlH; copies are assay ratio; with Magnesium-chelatase subunit ChlI; Magnesium-chelatase subunit ChlD
- Km [1]: 5.74 ± 0.77 µM
- kcat [1]: 0.0188 ± 0.001 s⁻¹

B2: magnesium chelatase (ChlI, His6-ChlD, His6-ChlH); nucleotide sites (Synechocystis sp. PCC 6803 substr. Kazusa) (protein)
chain 1: MTATLAAPSKTRRVVFPFTAIVGQDEMKLALLLNVIDPKIGGVMIMGDRGTGKSTTIRALADLLPEIEVVANDPFNSSPSDPEMMSEEVRIRVDSQEPLSIVKKKVTMVDLPLGATEDRVCGTIDIEKALSEGVKAFEPGLLAKANRGILYVDEVNLLDDHLVDVLLDSAAGGWNTVEREGISIRHPARFVLVGSGNPEEGELRPQLLDRFGMHAEIRTVREPELRVKIVEQRTEFDQNPHPFCDQYQTEQEALQAKIVNAQNLLPQVTIDYDYRVKVSEVCAELDVDGLRGDIVTNRAAKALAAFEGRTEVTVDDISRVIVLCLRHRLRKDPLESIDSGSKVEKVFKRVFGVVDEA
chain 2: not shown
notes: recombinant from E. coli; His6 tags on ChlD and ChlH, ChlI untagged; ATPase sites in ChlI, allosteric nucleotide site proposed in ChlD; with Magnesium-chelatase subunit ChlH
- K0.5 ([2]; I 0.1, Hill n 2.0 ± 0.2): 0.43 ± 0.02 mM
- kcat ([2]; I 0.1, Hill n 2.0 ± 0.2): 0.00675 ± 0.000233 s⁻¹

B3: magnesium chelatase (ChlI, His6-ChlD, His6-ChlH); nucleotide sites (Synechocystis sp. PCC 6803 substr. Kazusa; P72772:R208A) (protein)
chain 1: MTATLAAPSKTRRVVFPFTAIVGQDEMKLALLLNVIDPKIGGVMIMGDRGTGKSTTIRALADLLPEIEVVANDPFNSSPSDPEMMSEEVRIRVDSQEPLSIVKKKVTMVDLPLGATEDRVCGTIDIEKALSEGVKAFEPGLLAKANRGILYVDEVNLLDDHLVDVLLDSAAGGWNTVEREGISIRHPARFVLVGSGNPEEGELRPQLLDRFGMHAEIRTVREPELRVKIVEQRTEFDQNPHPFCDQYQTEQEALQAKIVNAQNLLPQVTIDYDYRVKVSEVCAELDVDGLRGDIVTNRAAKALAAFEGRTEVTVDDISRVIVLCLRHRLRKDPLESIDSGSKVEKVFKRVFGVVDEA
chain 2: not shown
notes: as for B2
- K0.5 ([2]; I 0.1, Hill n 2.0 ± 0.10): 0.78 ± 0.02 mM
- kcat ([2]; I 0.1, Hill n 2.0 ± 0.10): 0.00438 ± 8.3e-05 s⁻¹

B4: magnesium chelatase (ChlI, His6-ChlD, His6-ChlH); nucleotide sites (Synechocystis sp. PCC 6803 substr. Kazusa; P72772:R289A) (protein)
chain 1: MTATLAAPSKTRRVVFPFTAIVGQDEMKLALLLNVIDPKIGGVMIMGDRGTGKSTTIRALADLLPEIEVVANDPFNSSPSDPEMMSEEVRIRVDSQEPLSIVKKKVTMVDLPLGATEDRVCGTIDIEKALSEGVKAFEPGLLAKANRGILYVDEVNLLDDHLVDVLLDSAAGGWNTVEREGISIRHPARFVLVGSGNPEEGELRPQLLDRFGMHAEIRTVREPELRVKIVEQRTEFDQNPHPFCDQYQTEQEALQAKIVNAQNLLPQVTIDYDYRVKVSEVCAELDVDGLRGDIVTNRAAKALAAFEGRTEVTVDDISRVIVLCLRHRLRKDPLESIDSGSKVEKVFKRVFGVVDEA
chain 2: not shown
notes: as for B2
- Km [3]: 1790 ± 320 µM
- kcat [3]: 0.0009 ± 8.3e-05 s⁻¹

B5: magnesium chelatase (ChlI, His6-ChlD, His6-ChlH); nucleotide sites (Synechocystis sp. PCC 6803 substr. Kazusa; P72772:E152Q) (protein)
chain 1: MTATLAAPSKTRRVVFPFTAIVGQDEMKLALLLNVIDPKIGGVMIMGDRGTGKSTTIRALADLLPEIEVVANDPFNSSPSDPEMMSEEVRIRVDSQEPLSIVKKKVTMVDLPLGATEDRVCGTIDIEKALSEGVKAFEPGLLAKANRGILYVDEVNLLDDHLVDVLLDSAAGGWNTVEREGISIRHPARFVLVGSGNPEEGELRPQLLDRFGMHAEIRTVREPELRVKIVEQRTEFDQNPHPFCDQYQTEQEALQAKIVNAQNLLPQVTIDYDYRVKVSEVCAELDVDGLRGDIVTNRAAKALAAFEGRTEVTVDDISRVIVLCLRHRLRKDPLESIDSGSKVEKVFKRVFGVVDEA
chain 2: not shown
notes: as for B2
- K0.5 ([2]; I 0.1, Hill n 1.8 ± 0.17): 0.72 ± 0.04 mM
- kcat ([2]; I 0.1, Hill n 1.8 ± 0.17): 0.0018 ± 6.7e-05 s⁻¹
